Reference: patent publication US20030199423A1 (published 2003)

T1: ICAM-R/IgG chimera, wild type (human, UniProt P32942 30-485)
T1 construct: also called ICAM-3/IgG; ICAM-R/Ig fusion protein
T1 chain: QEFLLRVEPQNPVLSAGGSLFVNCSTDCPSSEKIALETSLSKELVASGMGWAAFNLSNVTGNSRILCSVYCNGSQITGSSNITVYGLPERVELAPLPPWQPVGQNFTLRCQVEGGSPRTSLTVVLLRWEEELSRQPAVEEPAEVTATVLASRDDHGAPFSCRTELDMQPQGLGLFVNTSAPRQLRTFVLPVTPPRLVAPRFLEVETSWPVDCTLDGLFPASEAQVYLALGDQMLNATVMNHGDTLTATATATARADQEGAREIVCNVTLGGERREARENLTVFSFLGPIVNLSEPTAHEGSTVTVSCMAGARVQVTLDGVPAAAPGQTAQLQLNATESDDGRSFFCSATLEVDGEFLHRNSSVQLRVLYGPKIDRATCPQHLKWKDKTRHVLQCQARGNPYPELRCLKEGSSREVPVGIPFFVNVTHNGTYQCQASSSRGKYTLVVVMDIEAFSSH

T2: ICAM-R mutant F21V/AS (human, UniProt P32942 30-547)
T2 construct: on transfected COS cells
T2 chain: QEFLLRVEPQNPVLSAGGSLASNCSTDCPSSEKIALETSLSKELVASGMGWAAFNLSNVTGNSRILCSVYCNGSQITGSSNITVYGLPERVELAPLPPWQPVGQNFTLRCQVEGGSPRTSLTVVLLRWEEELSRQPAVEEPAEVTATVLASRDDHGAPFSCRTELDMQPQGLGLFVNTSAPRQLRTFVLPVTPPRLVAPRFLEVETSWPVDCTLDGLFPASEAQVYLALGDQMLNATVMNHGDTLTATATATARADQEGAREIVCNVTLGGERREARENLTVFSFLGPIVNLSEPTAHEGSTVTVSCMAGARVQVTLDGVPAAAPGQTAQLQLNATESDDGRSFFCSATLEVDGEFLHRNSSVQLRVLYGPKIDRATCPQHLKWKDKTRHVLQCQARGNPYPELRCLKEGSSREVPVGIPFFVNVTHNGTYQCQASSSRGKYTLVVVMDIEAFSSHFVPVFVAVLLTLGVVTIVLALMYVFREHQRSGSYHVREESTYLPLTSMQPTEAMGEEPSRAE

T3: macaque ICAM-R on peripheral blood leukocytes (Macaca fascicularis, UniProt A0A2K5TJA8 30-547)
T3 construct: whole, on cells; also called monkey PBL; macaque leukocytes
T3 sequence: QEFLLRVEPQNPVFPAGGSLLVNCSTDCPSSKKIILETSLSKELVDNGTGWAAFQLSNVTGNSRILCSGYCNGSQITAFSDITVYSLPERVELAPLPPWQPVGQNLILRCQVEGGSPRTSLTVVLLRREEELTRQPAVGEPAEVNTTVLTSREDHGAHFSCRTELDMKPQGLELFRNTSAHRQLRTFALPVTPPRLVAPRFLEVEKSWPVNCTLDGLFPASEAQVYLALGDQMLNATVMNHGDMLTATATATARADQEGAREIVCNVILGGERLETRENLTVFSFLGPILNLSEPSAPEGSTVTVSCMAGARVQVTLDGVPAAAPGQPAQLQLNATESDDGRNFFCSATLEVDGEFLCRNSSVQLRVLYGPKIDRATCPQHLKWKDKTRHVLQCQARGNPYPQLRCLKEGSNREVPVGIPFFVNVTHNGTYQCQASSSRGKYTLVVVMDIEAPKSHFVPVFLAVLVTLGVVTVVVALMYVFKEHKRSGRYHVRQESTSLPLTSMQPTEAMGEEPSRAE

B1: soluble human ICAM-R (receptor)
chain: QEFLLRVEPQNPVLSAGGSLFVNCSTDCPSSEKIALETSLSKELVASGMGWAAFNLSNVTGNSRILCSVYCNGSQITGSSNITVYGLPERVELAPLPPWQPVGQNFTLRCQVEGGSPRTSLTVVLLRWEEELSRQPAVEEPAEVTATVLASRDDHGAPFSCRTELDMQPQGLGLFVNTSAPRQLRTFVLPVTPPRLVAPRFLEVETSWPVDCTLDGLFPASEAQVYLALGDQMLNATVMNHGDTLTATATATARADQEGAREIVCNVTLGGERREARENLTVFSFLGPIVNLSEPTAHEGSTVTVSCMAGARVQVTLDGVPAAAPGQTAQLQLNATESDDGRSFFCSATLEVDGEFLHRNSSVQLRVLYGPKIDRATCPQHLKWKDKTRHVLQCQARGNPYPELRCLKEGSSREVPVGIPFFVNVTHNGTYQCQASSSRGKYTLVVVMDIEAFSSH
notes: baculovirus, Sf-9 cells, lentil lectin purified; also called shICAM-R; soluble ICAM-R

Columns and labels:
soluble human ICAM-R = target: B1; assay: ELISA on coated baculovirus soluble ICAM-R
[1] = target: T1, ICAM-R/IgG chimera, wild type; assay: ELISA on ICAM-R/Ig fusion protein
ICAM-R mutant F21V/AS = target: T2, ICAM-R mutant F21V/AS; assay: FACS on COS transfectants
[2] = target: T3, macaque ICAM-R on peripheral blood …; assay: FACS on Macaca fascicularis PBL
Mac-1 (CD18/CD11b) = Mac-1 (CD18/CD11b) (UniProt P11215 17-1152; P05107 23-769); assay: neutrophil adhesion to coated chimeras with blocking antibodies
Gp 150,95 (CD18/CD11c) = target: T4, Gp 150,95 (CD18/CD11c) (UniProt P20702 20-1163; P05107 23-769); assay: shICAM-R coated fluorescent beads on wells coated with purified Gp 150,95
T4 construct: purified, coated on plastic
T4 sequence (P20702 20-1163 limits assumed, chain 1 of 2): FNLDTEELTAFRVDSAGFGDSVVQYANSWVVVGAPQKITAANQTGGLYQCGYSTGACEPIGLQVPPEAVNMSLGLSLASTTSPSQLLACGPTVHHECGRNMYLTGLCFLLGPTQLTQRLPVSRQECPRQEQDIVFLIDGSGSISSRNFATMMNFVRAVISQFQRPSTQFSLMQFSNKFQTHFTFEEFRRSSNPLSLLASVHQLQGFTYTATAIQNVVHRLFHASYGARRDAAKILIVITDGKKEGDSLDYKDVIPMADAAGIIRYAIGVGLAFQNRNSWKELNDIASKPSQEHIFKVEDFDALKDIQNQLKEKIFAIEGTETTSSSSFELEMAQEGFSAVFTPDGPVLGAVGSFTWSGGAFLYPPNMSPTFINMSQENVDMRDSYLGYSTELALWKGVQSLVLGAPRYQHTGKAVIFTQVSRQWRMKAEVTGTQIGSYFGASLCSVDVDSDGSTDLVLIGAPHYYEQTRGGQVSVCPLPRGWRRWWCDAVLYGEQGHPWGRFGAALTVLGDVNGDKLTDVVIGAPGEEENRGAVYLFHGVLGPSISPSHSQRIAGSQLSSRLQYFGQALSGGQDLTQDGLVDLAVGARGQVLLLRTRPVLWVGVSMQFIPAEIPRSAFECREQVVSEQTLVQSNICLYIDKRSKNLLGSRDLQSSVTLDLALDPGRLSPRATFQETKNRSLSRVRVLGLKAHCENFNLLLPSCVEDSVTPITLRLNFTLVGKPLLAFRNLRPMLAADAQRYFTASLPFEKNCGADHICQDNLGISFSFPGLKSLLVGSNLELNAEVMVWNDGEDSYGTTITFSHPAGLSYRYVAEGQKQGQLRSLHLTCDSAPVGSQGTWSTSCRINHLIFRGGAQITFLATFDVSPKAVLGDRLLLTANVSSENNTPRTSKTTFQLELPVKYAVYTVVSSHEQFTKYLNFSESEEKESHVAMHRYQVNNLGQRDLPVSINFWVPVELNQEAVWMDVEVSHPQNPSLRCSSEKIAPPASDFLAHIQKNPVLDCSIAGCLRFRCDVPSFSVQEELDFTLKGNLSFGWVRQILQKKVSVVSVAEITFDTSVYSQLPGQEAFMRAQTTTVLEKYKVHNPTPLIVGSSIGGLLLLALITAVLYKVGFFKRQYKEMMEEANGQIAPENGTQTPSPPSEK
T4 sequence (P05107 23-769 limits assumed, chain 2 of 2): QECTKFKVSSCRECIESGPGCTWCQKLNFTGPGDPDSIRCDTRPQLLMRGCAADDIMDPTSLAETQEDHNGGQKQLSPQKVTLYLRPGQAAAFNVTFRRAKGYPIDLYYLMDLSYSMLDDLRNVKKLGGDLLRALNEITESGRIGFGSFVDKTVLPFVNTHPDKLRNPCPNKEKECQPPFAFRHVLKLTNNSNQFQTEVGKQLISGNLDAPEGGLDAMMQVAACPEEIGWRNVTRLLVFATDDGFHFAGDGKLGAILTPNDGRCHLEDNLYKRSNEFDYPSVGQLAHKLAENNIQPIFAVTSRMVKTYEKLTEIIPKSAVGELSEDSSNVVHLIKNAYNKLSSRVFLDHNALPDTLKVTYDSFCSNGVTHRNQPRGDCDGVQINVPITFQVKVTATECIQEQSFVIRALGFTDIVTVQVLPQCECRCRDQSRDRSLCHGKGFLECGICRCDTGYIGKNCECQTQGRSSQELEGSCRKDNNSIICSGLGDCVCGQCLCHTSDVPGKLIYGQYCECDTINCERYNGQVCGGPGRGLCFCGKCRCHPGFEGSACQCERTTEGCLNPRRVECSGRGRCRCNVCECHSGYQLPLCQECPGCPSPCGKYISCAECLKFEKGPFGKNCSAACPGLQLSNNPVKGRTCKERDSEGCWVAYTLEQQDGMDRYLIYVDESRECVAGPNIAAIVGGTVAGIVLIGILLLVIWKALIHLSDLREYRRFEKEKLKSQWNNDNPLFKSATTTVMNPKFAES

Binder	binding result (ICAM-R mutant F21V/AS)	binding result [2]	further results
humanized ICR-1.1 antibody HuVHK/HuVKP (antibody, human IgG4, V domains shown, human IgG4, human kappa) VH: QVQLVQSGAEVKKPGASVKVSCKASGYTFTVYWMHWVRQAPGQGLEWMGYINPNTDYTEYNQRFQDRVTITADKSTSTAYMELSSLRSEDTAVYYCARWGGNSYGLDYWGQGTLVTVSS VL: DIQMTQSPSSLSASVGDRVTITCSASSSVSYIYWYQQKPGKAPKPLIYLTSNLASGVPSRFSGSGSGTDFTLTISSLQPEDFATYYCQQWKSIPLTFGQGTKLEIK	–	–	binding relative to the chimeric antibody (MuVH/MuVK) (soluble human ICAM-R): ≤ 50 % difference; binding relative to the chimeric antibody (MuVH/MuVK) [1]: ≤ 50 % difference
monoclonal antibody ICR-1.1 (antibody, mouse IgG2a, V domains shown, murine IgG2a, kappa; hybridoma ATCC HB 11053; also called 26E3D; 26E3D-1) VH: QVQLQQSGAELAKPGASVKMSCKASGYTFTVYWMHWVKQRPGQGLEWIGYINPNTDYTEYNQRFQDKATLTADKSSSTAYMQLSSLTSEDSAVYYCARWGGNSYGLDYWGQGTSVTVSS VL: QIVLTQSPALMSASPGEKVTMTCSASSSVSYIYWYQQKPRSSPKPWIYLTSNLASGVPARFSGSGSGASYSLTISIMEAEDAATYYCQQWKSIPLTFGAGTKLELK	no binding	no binding	–
ICAM-2/IgG fusion protein (Fc fusion, not shown: a dimerising Fc or GST) KVFEVHVRPKKLAVEPKGSLEVNCSTTCNQPEVGGLETSLDKILLDEQAQWKHYLVSNISHDTVLQCHFTCSGKQESMNSNVSVYQPPRQVILTLQPTLVAVGKSFTIECRVPTVEPLDSLTLFLFRGNETLHYETFGKAAPAPQEATATFNSTADREDGHRNFSCLAVLDLMSRGGNIFHKHSAPKMLEIYEPVSDSQ	–	–	binding result (Mac-1 (CD18/CD11b)): binds
B1	–	–	binding result (Gp 150,95 (CD18/CD11c)): binds
monoclonal antibody ICR-8.1 (antibody, mouse IgG1, V domains shown, murine IgG1, kappa; hybridoma ATCC HB 11232; also called 46D7E) VH: EIQLQQTGPELVKPGASVKISCKASGYSFTDCIILWVKQSHGKGLEWIGKINPYFGTTTYNLKFKGKATLTVDKSSSTAHMQLNSLTSEDSAVYYCARKEAYPDAMDYWGQGTSVTVSS VL: DAVMTQTPLSLPVSLGDQASISCRSSQSLVHSNGDTYLHWYLQKPGQSPQLLIYKVSNRFSGVPDRFSGSGSGTDFTLKLSRVEAEDLGVYFCSQSTHVPYTFGGGTKLEIK	no binding	no binding	–
